Columns and labels:
[1] = target: biotinylated hFcRn (human) (UniProt P55899); assay: Biacore SPR, pH 6.0, bivalent fit
Target sequence in this assay (P55899 24-297, form in doubt, chain 1 of 2): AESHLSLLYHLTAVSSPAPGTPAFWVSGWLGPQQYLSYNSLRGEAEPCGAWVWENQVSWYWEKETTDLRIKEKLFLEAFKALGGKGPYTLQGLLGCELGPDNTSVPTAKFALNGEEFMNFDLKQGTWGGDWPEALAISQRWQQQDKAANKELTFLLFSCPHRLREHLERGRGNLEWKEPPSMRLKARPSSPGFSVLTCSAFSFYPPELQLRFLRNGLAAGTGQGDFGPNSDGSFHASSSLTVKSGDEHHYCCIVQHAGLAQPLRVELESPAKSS
Target sequence in this assay (P61769 21-119, form in doubt, chain 2 of 2, further chain): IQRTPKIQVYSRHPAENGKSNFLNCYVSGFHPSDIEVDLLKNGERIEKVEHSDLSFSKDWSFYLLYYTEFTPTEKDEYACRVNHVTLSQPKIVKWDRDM

rFcRn (rat) [2] = target: rFcRn (rat) (UniProt P13599); assay: Biacore SPR, pH 6.0, bivalent fit
Target sequence in this assay (P13599 23-298, form in doubt, chain 1 of 2): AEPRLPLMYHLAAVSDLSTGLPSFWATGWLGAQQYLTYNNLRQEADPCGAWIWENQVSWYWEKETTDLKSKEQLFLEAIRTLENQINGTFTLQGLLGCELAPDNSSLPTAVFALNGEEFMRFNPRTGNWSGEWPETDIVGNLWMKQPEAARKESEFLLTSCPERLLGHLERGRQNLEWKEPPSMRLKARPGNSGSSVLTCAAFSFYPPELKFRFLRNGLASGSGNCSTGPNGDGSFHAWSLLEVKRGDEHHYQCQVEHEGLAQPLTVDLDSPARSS
Target sequence in this assay (P07151 21-119, form in doubt, chain 2 of 2, further chain): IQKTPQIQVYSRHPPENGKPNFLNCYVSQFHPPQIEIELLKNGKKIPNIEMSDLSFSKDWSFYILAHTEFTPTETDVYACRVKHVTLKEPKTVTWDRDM

[3] = target: biotinylated hFcRn (human) (UniProt P55899); assay: Biacore SPR, pH 7.4, single antibody concentration, steady state
Target sequence in this assay (P55899 24-297, form in doubt, chain 1 of 2): as the sequence (P55899 24-297, form in doubt, chain 1 of 2) above
Target sequence in this assay (P61769 21-119, form in doubt, chain 2 of 2, further chain): as the sequence (P61769 21-119, form in doubt, chain 2 of 2, further chain) above

rFcRn (rat) [4] = target: rFcRn (rat) (UniProt P13599); assay: as above
Target sequence in this assay (P13599 23-298, form in doubt, chain 1 of 2): as the sequence (P13599 23-298, form in doubt, chain 1 of 2) above
Target sequence in this assay (P07151 21-119, form in doubt, chain 2 of 2, further chain): as the sequence (P07151 21-119, form in doubt, chain 2 of 2, further chain) above

[5] = target: Human CD16a (FcγRIIIa) V158 with C-terminal HPC4 tag (human) (UniProt P08637); assay: Biacore SPR, captured HPC4-tagged FcγRIIIa-V158, steady-state fit
Chain of Human CD16a (FcγRIIIa) V158 with C-terminal HPC4 tag (human) (P08637 17-208 F176V): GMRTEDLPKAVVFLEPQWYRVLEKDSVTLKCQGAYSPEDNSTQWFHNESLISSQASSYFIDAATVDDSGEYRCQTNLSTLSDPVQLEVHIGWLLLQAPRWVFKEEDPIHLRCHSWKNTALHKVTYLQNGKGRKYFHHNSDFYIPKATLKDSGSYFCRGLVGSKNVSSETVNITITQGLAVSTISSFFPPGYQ

rFcRn (rat) [6] = target: rFcRn (rat) (UniProt P13599); assay: SPR Biacore, pH 6.0
Target sequence in this assay (P13599 23-298 limits assumed, form in doubt, chain 1 of 2): as the sequence (P13599 23-298, form in doubt, chain 1 of 2) above
Target sequence in this assay (P07151 21-119 limits assumed, form in doubt, chain 2 of 2, further chain): as the sequence (P07151 21-119, form in doubt, chain 2 of 2, further chain) above

[7] = target: biotinylated hFcRn (human) (UniProt P55899); assay: SPR Biacore, pH 7.4, 1000 nM antibody
Target sequence in this assay (P55899 24-297 limits assumed, form in doubt, chain 1 of 2): as the sequence (P55899 24-297, form in doubt, chain 1 of 2) above
Target sequence in this assay (P61769 21-119 limits assumed, form in doubt, chain 2 of 2, further chain): as the sequence (P61769 21-119, form in doubt, chain 2 of 2, further chain) above

rFcRn (rat) [8] = target: rFcRn (rat) (UniProt P13599); assay: SPR Biacore, pH 7.4, 1000 nM antibody
Target sequence in this assay (P13599 23-298 limits assumed, form in doubt, chain 1 of 2): as the sequence (P13599 23-298, form in doubt, chain 1 of 2) above
Target sequence in this assay (P07151 21-119 limits assumed, form in doubt, chain 2 of 2, further chain): as the sequence (P07151 21-119, form in doubt, chain 2 of 2, further chain) above

[9] = target: biotinylated hFcRn (human) (UniProt P55899); assay: SPR Biacore, pH 6.0
Target sequence in this assay (P55899 24-297 limits assumed, form in doubt, chain 1 of 2): as the sequence (P55899 24-297, form in doubt, chain 1 of 2) above
Target sequence in this assay (P61769 21-119 limits assumed, form in doubt, chain 2 of 2, further chain): as the sequence (P61769 21-119, form in doubt, chain 2 of 2, further chain) above

rFcRn (rat) [10] = target: rFcRn (rat) (UniProt P13599); assay: SPR Biacore, pH 7.4
Target sequence in this assay (P13599 23-298 limits assumed, form in doubt, chain 1 of 2): as the sequence (P13599 23-298, form in doubt, chain 1 of 2) above
Target sequence in this assay (P07151 21-119 limits assumed, form in doubt, chain 2 of 2, further chain): as the sequence (P07151 21-119, form in doubt, chain 2 of 2, further chain) above

[11] = target: biotinylated hFcRn (human) (UniProt P55899); assay: SPR Biacore, pH 6.0; remark: listed apart in the source
Target sequence in this assay (P55899 24-297 limits assumed, form in doubt, chain 1 of 2): as the sequence (P55899 24-297, form in doubt, chain 1 of 2) above
Target sequence in this assay (P61769 21-119 limits assumed, form in doubt, chain 2 of 2, further chain): as the sequence (P61769 21-119, form in doubt, chain 2 of 2, further chain) above

[12] = target: biotinylated hFcRn (human) (UniProt P55899); assay: SPR Biacore, pH 7.4
Target sequence in this assay (P55899 24-297 limits assumed, form in doubt, chain 1 of 2): as the sequence (P55899 24-297, form in doubt, chain 1 of 2) above
Target sequence in this assay (P61769 21-119 limits assumed, form in doubt, chain 2 of 2, further chain): as the sequence (P61769 21-119, form in doubt, chain 2 of 2, further chain) above

[13] = target: biotinylated human FcRn (hFcRn; p51 subunit residues 24-297 with C-terminal Avi-tag, β2-m residues 21-119) (human) (UniProt P55899); assay: Biacore SPR, pH 6.0, apparent affinity
Chain of biotinylated human FcRn (hFcRn; p51 subunit residues 24-297 with C-terminal Avi-tag, β2-m residues 21-119) (human) (P55899 24-297, form in doubt, chain 1 of 2): as the sequence (P55899 24-297, form in doubt, chain 1 of 2) above
Chain of biotinylated human FcRn (hFcRn; p51 subunit residues 24-297 with C-terminal Avi-tag, β2-m residues 21-119) (human) (P61769 21-119, form in doubt, chain 2 of 2, further chain): as the sequence (P61769 21-119, form in doubt, chain 2 of 2, further chain) above

[14] = target: biotinylated human FcRn (hFcRn; p51 subunit residues 24-297 with C-terminal Avi-tag, β2-m residues 21-119) (human) (UniProt P55899); assay: Biacore SPR, pH 7.4, steady state, 1000 nM antibody
[15] = target: biotinylated human FcRn (hFcRn; p51 subunit residues 24-297 with C-terminal Avi-tag, β2-m residues 21-119) (human) (UniProt P55899); assay: Biacore SPR, Biotin CAPture, pH 7.4, 1000 nM antibody, steady state

Substance | Kd (rFcRn (rat) [2]) [nM] | Kd (rFcRn (rat) [6]) [nM] | Steady State RU [7] [RU] | Steady State RU (rFcRn (rat) [8]) [RU] | Kd [9] [nM] | Steady State RU (rFcRn (rat) [10]) [RU] | further results
mAb1 AAA (T307A/E380A/N434A) (antibody) | 77 | – | – | – | – | – | Kd [1]: 1780 nM; koff [1]: 0.14 s⁻¹; kon [1]: 84000 M⁻¹ s⁻¹; koff (rFcRn (rat) [2]): 0.0117 s⁻¹; kon (rFcRn (rat) [2]): 157000 M⁻¹ s⁻¹; Steady State RU (pH 7.4) [3]: 13.9 RU; Steady State RU (pH 7.4) (rFcRn (rat) [4]): 23.6 RU; Kd [5]: 450 nM
mAb1 E380C (antibody) | 6310 | 6310 | 5.7 | 27.7 | – | – | –
mAb1 K288D (antibody) | 149 | 149 | 3.8 | 21.9 | – | – | –
mAb1 K288N (antibody) | 190 | 190 | – | 20.4 | – | – | –
mAb1 M252Y (antibody) | 25 | 25 | – | 57.7 | 3100 | 50.5 | Kd [11]: > 3000 nM; Kd [1]: 3100 nM
mAb1 N434P (antibody) | 194 | 194 | 3.5 | 4.3 | – | – | –
mAb1 T256D (antibody) | 86 | 86 | – | 30.4 | 6700 | 23.2 | Kd [11]: > 3000 nM; Kd [1]: 6700 nM
mAb1 T256E (antibody) | 113 | 113 | 4.8 | 23 | – | 17 | Steady State RU [12]: 4.5 RU; Kd [11]: > 3000 nM
mAb1 T307A (antibody) | 132 | 132 | 5.2 | 23.1 | – | – | –
mAb1 T307F (antibody) | 131 | 131 | 4.9 | 21.9 | – | – | –
mAb1 T307M (antibody) | 279 | 279 | 4.4 | 15.3 | – | – | –
mAb1 T307Q (antibody) | 58 | 58 | 6.4 | 24.3 | 5720 | 31.3 | Steady State RU [12]: 6.6 RU; Kd [11]: > 3000 nM; Kd [1]: 5720 nM
mAb1 T307Q/N434Y (antibody) | – | 4.11 | – | – | 32.4 | 63 | koff [9]: 0.0202 s⁻¹; kon [9]: 622000 M⁻¹ s⁻¹; koff (rFcRn (rat) [6]): 0.00048 s⁻¹; kon (rFcRn (rat) [6]): 116000 M⁻¹ s⁻¹; Steady State RU [12]: 38.4 RU
mAb1 T307W (antibody) | 111 | 111 | – | 19.2 | 8740 | 21.9 | Kd [11]: > 3000 nM; Kd [1]: 8740 nM
mAb1 T307W/N434F (antibody) | – | 2.7 | – | – | 38.2 | 65.1 | koff (rFcRn (rat) [6]): 0.00057 s⁻¹; Steady State RU [12]: 30.5 RU
mAb1 T307W/N434Y (antibody) | – | 0.62 | – | – | 21.5 | 69.6 | koff [9]: 0.0317 s⁻¹; kon [9]: 1.48e+06 M⁻¹ s⁻¹; koff (rFcRn (rat) [6]): 0.0003 s⁻¹; kon (rFcRn (rat) [6]): 480000 M⁻¹ s⁻¹; Steady State RU [12]: 37.2 RU
mAb1 Y436H (antibody) | 131 | 131 | 3.6 | 16.3 | – | – | –
mAb1 Y436N (antibody) | 233 | 233 | 3.6 | 17.4 | – | – | –
mAb1 Y436W (antibody) | 1140 | 1140 | 3.7 | 10.3 | – | – | –
mAb1 YDTN (M252Y/T256D) (antibody) | 5.9 | – | – | – | – | – | Steady State RU (pH 7.4) [3]: 9.7 RU; Steady State RU (pH 7.4) (rFcRn (rat) [4]): 56 RU; Kd [5]: 1060 nM
mAb1 YDTY variant (M252Y/T256D/N434Y) (antibody) | – | – | – | – | – | – | Ka [13]: 9.01e+07 M⁻¹; Steady State Binding, pH 7.4 (RU) [14]: 65.4 RU; pH 7.4 RU [15]: 69.7 RU
mAb1 YDWF variant (M252Y/T256D/T307W/N434F) (antibody) | – | – | – | – | – | – | Ka [13]: 1.66e+08 M⁻¹; Steady State Binding, pH 7.4 (RU) [14]: 71.8 RU; pH 7.4 RU [15]: 75.7 RU
mAb1 YTWY variant (M252Y/T307W/N434Y) (antibody) | – | – | – | – | – | – | Ka [13]: 1.06e+08 M⁻¹; Steady State Binding, pH 7.4 (RU) [14]: 75.1 RU; pH 7.4 RU [15]: 77.1 RU

Reference: US20190263934A1
